Measurements from PMC4513855.

Columns and labels:
[1] = target: T1, VirE2 (Agrobacterium tumefaciens (nopaline …, UniProt P08062 1-556)); experiment: SPRi
T1 sequence: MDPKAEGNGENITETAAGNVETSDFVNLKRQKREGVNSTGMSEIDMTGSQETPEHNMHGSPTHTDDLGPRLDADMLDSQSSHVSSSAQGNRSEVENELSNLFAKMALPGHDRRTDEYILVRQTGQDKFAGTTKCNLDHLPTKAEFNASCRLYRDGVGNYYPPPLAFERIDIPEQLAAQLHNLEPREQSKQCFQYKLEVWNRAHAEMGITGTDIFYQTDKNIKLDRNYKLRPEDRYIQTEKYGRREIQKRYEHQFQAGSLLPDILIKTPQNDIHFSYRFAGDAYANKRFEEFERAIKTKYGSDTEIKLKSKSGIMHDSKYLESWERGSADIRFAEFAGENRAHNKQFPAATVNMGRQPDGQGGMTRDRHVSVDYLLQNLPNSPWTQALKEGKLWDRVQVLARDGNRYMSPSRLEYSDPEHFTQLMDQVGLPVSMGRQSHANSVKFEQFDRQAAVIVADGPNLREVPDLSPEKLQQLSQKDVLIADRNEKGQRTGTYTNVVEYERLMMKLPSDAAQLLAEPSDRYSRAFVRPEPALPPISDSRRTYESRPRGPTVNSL

[2] = target: T2, VirE2 (co-expressed with VirE1);VirE1 (Agrobacterium tumefaciens (nopaline …, UniProt P08062;P08063 1-556;1-63, |)); experiment: SPRi
T2 sequence 1: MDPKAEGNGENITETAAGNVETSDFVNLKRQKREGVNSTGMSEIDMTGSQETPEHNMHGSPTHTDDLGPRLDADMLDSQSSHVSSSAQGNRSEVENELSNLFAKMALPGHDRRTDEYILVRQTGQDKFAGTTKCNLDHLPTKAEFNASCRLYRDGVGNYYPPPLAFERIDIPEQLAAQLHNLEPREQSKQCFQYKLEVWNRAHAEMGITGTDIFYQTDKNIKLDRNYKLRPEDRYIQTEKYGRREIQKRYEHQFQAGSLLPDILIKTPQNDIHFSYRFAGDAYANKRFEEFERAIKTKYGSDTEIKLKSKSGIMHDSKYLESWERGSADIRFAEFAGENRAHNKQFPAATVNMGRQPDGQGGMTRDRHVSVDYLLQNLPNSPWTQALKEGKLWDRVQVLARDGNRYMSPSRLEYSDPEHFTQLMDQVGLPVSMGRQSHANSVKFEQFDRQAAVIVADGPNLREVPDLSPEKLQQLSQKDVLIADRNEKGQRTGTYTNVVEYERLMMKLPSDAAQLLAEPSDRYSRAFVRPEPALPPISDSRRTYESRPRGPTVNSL
T2 sequence 2: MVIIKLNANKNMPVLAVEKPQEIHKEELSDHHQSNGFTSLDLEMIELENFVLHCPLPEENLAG

TTTTTTTTTTTTTTTTTTTTTTTTTTTTTTTTTTTTTTTT (ssDNA, 5' C6-thiol) [ssT40 (poly-T 40-mer)]: binds [1]; binds [2].
